The results in this text go back to PMC4268495 (Nature, 2014).

The assay concerns the target T1, FtsZ (full length, recombinant) (Streptococcus pneumoniae, UniProt A0A0H2ZNE0 1-419).
T1 sequence (looked up): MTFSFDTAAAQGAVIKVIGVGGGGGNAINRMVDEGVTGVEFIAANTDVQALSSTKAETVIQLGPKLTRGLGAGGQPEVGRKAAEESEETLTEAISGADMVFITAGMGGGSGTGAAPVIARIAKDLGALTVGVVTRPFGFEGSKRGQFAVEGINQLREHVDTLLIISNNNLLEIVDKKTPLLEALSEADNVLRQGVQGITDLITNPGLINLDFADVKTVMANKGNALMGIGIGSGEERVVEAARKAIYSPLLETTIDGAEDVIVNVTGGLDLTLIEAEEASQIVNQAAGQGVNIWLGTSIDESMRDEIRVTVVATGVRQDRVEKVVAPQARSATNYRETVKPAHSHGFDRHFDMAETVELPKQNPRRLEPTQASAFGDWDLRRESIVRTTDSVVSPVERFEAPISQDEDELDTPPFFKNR
Nature of the assay: SPR.

Changes are numbered by the printed parent chain.

B1: MapZ cytoplasmic domain (domain or fragment, Streptococcus pneumoniae, UniProt Q8DR55 1-158, looked up)
chain: MSKKRRNRHKKEAQEPQFDFDEAKELTVGQAIRKNEEVEAGVLPEDSILDKYVKQHRDEIEADKFATRQYKKEEFVETQSLDDLIQEMREAVEKSEASSEEVPSSEDILLPLPLDDEEQGLDPLLLDDENPTEMTEEVEEEQNLSRLDQEDSEKKSKK
In the case of B1, the Kd (as a rule, a measure of binding affinity in units of concentration) is 8.76 nM.

B2: MapZ-2TE cytoplasmic domain (domain or fragment, Streptococcus pneumoniae, UniProt Q8DR55 1-158, looked up)
chain: B1 chain with T67E, T78E
As to B2, the binding result is recorded as “binds”.
As to MSKKRRNRHKKEAQEPQFDFDEAKELTVGQAIRKNEEVEAG (domain or fragment, Streptococcus pneumoniae, UniProt Q8DR55 1-41, looked up) [MapZ N-terminal peptide from Met-1 to Gly-41], the Kd was found to be 20.4 nM.
